Source: IntAct's records for PubMed 31515488

B1: Transmembrane protein 79 (Homo sapiens), Q9BSE2 (parent)
chain: MTEQETLALLEVKRSDSPEKSSPQALVPNGRQPEGEGGAESPGAESLRVGSSAGSPTAIEGAEDGLDSTVSEAATLPWGTGPQPSAPFPDPPGWRDIEPEPPESEPLTKLEELPEDDANLLPEKAARAFVPIDLQCIERQPQEDLIVRCEAGEGECRTFMPPRVTHPDPTERKWAEAVVRPPGCSCGGCGSCGDREWLRAVASVGAALILFPCLLYGAYAFLPFDVPRLPTMSSRLIYTLRCGVFATFPIVLGILVYGLSLLCFSALRPFGEPRREVEIHRRYVAQSVQLFILYFFNLAVLSTYLPQDTLKLLPLLTGLFAVSRLIYWLTFAVGRSFRGFGYGLTFLPLLSMLMWNLYYMFVVEPERMLTATESRLDYPDHARSASDYRPRPWG
partner: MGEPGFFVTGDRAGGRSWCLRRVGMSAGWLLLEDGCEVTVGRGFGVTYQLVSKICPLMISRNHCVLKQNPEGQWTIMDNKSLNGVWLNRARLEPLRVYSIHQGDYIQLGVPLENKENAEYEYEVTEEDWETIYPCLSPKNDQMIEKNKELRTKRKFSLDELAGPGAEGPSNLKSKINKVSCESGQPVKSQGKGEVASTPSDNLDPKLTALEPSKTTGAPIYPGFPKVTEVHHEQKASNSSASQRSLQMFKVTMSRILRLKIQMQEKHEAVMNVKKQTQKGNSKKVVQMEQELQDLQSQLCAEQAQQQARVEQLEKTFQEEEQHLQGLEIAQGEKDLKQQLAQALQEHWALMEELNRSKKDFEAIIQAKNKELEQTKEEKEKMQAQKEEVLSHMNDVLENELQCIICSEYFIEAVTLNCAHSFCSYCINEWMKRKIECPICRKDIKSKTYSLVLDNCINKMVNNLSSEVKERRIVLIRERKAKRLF
B2: Cyclin-D1-binding protein 1 (Homo sapiens), O95273 (parent)
chain: MASATAPAAAVPTLASPLEQLRHLAEELRLLLPRVRVGEAQETTEEFNREMFWRRLNEAAVTVSREATTLTIVFSQLPLPSPQETQKFCEQVHAAIKAFIAVYYLLPKDQGITLRKLVRGATLDIVDGMAQLMEVLSVTPTQSPENNDLISYNSVWVACQQMPQIPRDNKAAALLMLTKNVDFVKDAHEEMEQAVEECDPYSGLLNDTEENNSDNHNHEDDVLGFPSNQDLYWSEDDQELIIPCLALVRASKACLKKIRMLVAENGKKDQVAQLDDIVDISDEISPSVDDLALSIYPPMCHLTVRINSAKLVSVLKKALEITKASHVTPQPEDSWIPLLINAIDHCMNRIKELTQSELEL
partner: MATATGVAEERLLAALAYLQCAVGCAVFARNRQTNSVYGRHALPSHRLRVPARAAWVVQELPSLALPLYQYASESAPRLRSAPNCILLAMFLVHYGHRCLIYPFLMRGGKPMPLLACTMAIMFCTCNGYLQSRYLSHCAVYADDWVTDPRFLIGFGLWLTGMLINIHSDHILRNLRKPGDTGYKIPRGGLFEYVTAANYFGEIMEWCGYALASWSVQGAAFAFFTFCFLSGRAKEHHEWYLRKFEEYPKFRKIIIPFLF
B3: Ceramide transfer protein (Homo sapiens), Q9Y5P4 (parent)
chain: MSDNQSWNSSGSEEDPETESGPPVERCGVLSKWTNYIHGWQDRWVVLKNNALSYYKSEDETEYGCRGSICLSKAVITPHDFDECRFDISVNDSVWYLRAQDPDHRQQWIDAIEQHKTESGYGSESSLRRHGSMVSLVSGASGYSATSTSSFKKGHSLREKLAEMETFRDILCRQVDTLQKYFDACADAVSKDELQRDKVVEDDEDDFPTTRSDGDFLHSTNGNKEKLFPHVTPKGINGIDFKGEAITFKATTAGILATLSHCIELMVKREDSWQKRLDKETEKKRRTEEAYKNAMTELKKKSHFGGPDYEEGPNSLINEEEFFDAVEAALDRQDKIEEQSQSEKVRLHWPTSLPSGDAFSSVGTHRFVQKPYSRSSSMSSIDLVSASDDVHRFSSQVEEMVQNHMTYSLQDVGGDANWQLVVEEGEMKVYRREVEENGIVLDPLKATHAVKGVTGHEVCNYFWNVDVRNDWETTIENFHVVETLADNAIIIYQTHKRVWPASQRDVLYLSVIRKIPALTENDPETWIVCNFSVDHDSAPLNNRCVRAKINVAMICQTLVSPPEGNQEISRDNILCKITYVANVNPGGWAPASVLRAVAKREYPKFLKRFTSYVQEKTAGKPILF
B4: AP-4 complex accessory subunit RUSC1 (Homo sapiens), Q9BVN2 (parent)
chain: MLSPQRALLCNLNHIHLQHVSLGLHLSRRPELQEGPLSTPPPPGDTGGKESRGPCSGTLVDANSNSPAVPCRCCQEHGPGLENRQDPSQEEEGAASPSDPGCSSSLSSCSDLSPDESPVSVYLRDLPGDEDAHPQPSIIPLEQGSPLASAGPGTCSPDSFCCSPDSCSGASSSPDPGLDSNCNALTTCQDVPSPGLEEEDERAEQDLPTSELLEADDGKIDAGKTEPSWKINPIWKIDTEKTKAEWKTTENNNTGWKNNGNVNSSWKSEPEKFDSGWKTNTRITDSGSKTDAGKIDGGWRSDVSEEPVPHRTITSFHELAQKRKRGPGLPLVPQAKKDRSDWLIVFSPDTELPPSGSPGGSSAPPREVTTFKELRSRSRAPAPPVPPRDPPVGWALVPPRPPPPPVPPRRKKNRPGLQPIAEGQSEEGRAVSPAAGEEAPAAKEPGAQAGLEVRSSWSFAGVPGAQRLWMAEAQSGTGQLQEQKKGLLIAVSVSVDKIISHFGAARNLVQKAQLGDSRLSPDVGHLVLTTLCPALHALVADGLKPFRKDLITGQRRSSPWSVVEASVKPGSSTRSLGTLYSQVSRLAPLSSSRSRFHAFILGLLNTKQLELWFSSLQEDAGLLSLLYLPTGFFSLARGGCPSLSTELLLLLQPLSVLTFHLDLLFEHHHHLPLGPPQAPAPPGPPPALQQTMQAMLHFGGRLAQSLRGTSKEAASDPSDSPNLPTPGSWWEQLTQASRVYASGGTEGFPLSRWAPGRHGTAAEEGAQERPLPTDEMAPGRGLWLGRLFGVPGGPAENENGALKSRRPSSWLPPTVSVLALVKRGAPPEMPSPQELEASAPRMVQTHRAVRALCDHTAARPDQLSFRRGEVLRVITTVDEDWLRCGRDGMEGLVPVGYTSLVL
B5: Zinc finger protein Aiolos (Homo sapiens), Q9UKT9-1 (parent)
chain: MEDIQTNAELKSTQEQSVPAESAAVLNDYSLTKSHEMENVDSGEGPANEDEDIGDDSMKVKDEYSERDENVLKSEPMGNAEEPEIPYSYSREYNEYENIKLERHVVSFDSSRPTSGKMNCDVCGLSCISFNVLMVHKRSHTGERPFQCNQCGASFTQKGNLLRHIKLHTGEKPFKCHLCNYACQRRDALTGHLRTHSVEKPYKCEFCGRSYKQRSSLEEHKERCRTFLQSTDPGDTASAEARHIKAEMGSERALVLDRLASNVAKRKSSMPQKFIGEKRHCFDVNYNSSYMYEKESELIQTRMMDQAINNAISYLGAEALRPLVQTPPAPTSEMVPVISSMYPIALTRAEMSNGAPQELEKKSIHLPEKSVPSERGLSPNNSGHDSTDTDSNHEERQNHIYQQNHMVLSRARNGMPLLKEVPRSYELLKPPPICPRDSVKVINKEGEVMDVYRCDHCRVLFLDYVMFTIHMGCHGFRDPFECNMCGYRSHDRYEFSSHIARGEHRALLK
partner: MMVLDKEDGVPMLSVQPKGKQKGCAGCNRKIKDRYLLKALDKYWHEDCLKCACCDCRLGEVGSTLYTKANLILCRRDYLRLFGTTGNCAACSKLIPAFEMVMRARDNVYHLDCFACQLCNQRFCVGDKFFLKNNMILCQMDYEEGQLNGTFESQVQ
B6: Four and a half LIM domains protein 3 (Homo sapiens), Q13643 (parent)
chain: MSESFDCAKCNESLYGRKYIQTDSGPYCVPCYDNTFANTCAECQQLIGHDSRELFYEDRHFHEGCFRCCRCQRSLADEPFTCQDSELLCNDCYCSAFSSQCSACGETVMPGSRKLEYGGQTWHEHCFLCSGCEQPLGSRSFVPDKGAHYCVPCYENKFAPRCARCSKTLTQGGVTYRDQPWHRECLVCTGCQTPLAGQQFTSRDEDPYCVACFGELFAPKCSSCKRPIVGLGGGKYVSFEDRHWHHNCFSCARCSTSLVGQGFVPDGDQVLCQGCSQAGP
partner: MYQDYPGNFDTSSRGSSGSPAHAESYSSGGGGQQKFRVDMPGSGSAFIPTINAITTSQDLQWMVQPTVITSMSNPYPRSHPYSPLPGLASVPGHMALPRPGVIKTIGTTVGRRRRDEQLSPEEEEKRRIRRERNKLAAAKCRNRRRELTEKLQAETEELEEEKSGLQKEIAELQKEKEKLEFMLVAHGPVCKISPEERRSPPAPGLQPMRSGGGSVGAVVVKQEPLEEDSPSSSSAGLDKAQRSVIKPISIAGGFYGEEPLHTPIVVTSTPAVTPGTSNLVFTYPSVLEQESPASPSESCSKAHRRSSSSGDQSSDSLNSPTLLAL

Variants of: B1
Conditions: with rnf8_human RNF8, O76064

Variant	effect of a mutation on the interaction
D144G	with no effect
S104T	with no effect

Variants of: B2
Conditions: with s5a1_human SRD5A1, P18405

Variant	effect of a mutation on the interaction
I277T	disrupting interaction strength

Variants of: B3
Conditions: with rtn4_human RTN4, Q9NQC3
Sequence of rtn4_human RTN4, Q9NQC3 (Q9NQC3 whole entry): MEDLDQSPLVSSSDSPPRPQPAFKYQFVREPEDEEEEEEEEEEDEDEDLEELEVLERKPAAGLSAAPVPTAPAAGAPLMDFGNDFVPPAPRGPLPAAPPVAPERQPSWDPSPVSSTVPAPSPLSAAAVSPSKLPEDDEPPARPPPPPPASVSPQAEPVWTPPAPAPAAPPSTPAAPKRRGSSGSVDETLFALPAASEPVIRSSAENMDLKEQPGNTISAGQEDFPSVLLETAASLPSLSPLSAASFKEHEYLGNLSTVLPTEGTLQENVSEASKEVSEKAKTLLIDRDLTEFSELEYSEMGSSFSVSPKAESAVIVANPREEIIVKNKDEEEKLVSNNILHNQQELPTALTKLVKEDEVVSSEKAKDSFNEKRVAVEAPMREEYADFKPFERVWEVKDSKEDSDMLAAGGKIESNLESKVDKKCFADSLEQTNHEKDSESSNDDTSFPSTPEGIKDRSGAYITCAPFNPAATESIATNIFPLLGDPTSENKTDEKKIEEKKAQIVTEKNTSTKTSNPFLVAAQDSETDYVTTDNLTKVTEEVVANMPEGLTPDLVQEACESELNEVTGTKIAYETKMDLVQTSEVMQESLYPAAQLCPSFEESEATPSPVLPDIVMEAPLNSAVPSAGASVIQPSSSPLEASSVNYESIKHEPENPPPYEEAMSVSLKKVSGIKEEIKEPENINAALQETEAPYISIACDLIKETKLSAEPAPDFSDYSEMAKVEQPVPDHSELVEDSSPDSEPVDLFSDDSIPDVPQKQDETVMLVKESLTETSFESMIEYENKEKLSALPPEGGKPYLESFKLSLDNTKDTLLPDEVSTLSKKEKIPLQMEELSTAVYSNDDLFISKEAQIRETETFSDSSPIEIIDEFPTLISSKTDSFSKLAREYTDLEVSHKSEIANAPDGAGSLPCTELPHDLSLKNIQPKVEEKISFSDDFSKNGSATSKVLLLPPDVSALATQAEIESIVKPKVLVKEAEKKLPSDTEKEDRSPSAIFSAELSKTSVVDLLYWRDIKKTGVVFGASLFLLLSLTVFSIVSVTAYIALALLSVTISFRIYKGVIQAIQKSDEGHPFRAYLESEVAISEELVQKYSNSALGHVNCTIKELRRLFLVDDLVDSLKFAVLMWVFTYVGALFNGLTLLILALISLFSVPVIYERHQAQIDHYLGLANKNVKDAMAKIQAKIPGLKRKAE

Variant	effect of a mutation on the interaction
R128H	with no effect

Variants of: B3
Conditions: with rtn3_human RTN3, O95197
Sequence of rtn3_human RTN3, O95197 (O95197 whole entry): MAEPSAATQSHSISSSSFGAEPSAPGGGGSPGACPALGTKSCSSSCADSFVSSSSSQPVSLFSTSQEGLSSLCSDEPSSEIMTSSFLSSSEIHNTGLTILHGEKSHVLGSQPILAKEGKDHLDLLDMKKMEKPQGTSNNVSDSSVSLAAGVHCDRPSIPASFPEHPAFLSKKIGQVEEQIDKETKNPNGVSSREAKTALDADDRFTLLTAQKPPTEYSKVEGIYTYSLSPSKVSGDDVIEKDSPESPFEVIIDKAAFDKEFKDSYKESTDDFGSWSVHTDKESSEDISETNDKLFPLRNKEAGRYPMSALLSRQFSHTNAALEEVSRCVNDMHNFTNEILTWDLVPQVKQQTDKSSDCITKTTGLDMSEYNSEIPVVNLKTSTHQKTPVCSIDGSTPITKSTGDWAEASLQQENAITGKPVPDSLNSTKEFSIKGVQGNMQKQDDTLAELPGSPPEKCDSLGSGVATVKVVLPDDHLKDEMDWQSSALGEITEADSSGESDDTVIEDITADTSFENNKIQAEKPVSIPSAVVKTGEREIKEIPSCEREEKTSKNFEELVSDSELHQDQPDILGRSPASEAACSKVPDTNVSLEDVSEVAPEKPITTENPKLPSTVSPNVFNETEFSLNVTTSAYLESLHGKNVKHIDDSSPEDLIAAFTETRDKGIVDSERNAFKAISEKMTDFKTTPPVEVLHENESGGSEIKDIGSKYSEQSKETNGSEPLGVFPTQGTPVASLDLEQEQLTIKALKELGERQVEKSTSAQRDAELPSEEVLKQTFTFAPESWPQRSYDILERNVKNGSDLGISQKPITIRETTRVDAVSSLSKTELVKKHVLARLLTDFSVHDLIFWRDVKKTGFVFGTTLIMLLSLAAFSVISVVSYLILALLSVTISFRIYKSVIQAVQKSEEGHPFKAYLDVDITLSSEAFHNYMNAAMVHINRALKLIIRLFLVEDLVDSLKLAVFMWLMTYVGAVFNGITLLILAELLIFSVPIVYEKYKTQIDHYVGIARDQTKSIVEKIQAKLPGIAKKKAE

Variant	effect of a mutation on the interaction
R128H	with no effect

Variants of: B3
Conditions: with ar6p1_human ARL6IP1, Q15041
Sequence of ar6p1_human ARL6IP1, Q15041 (Q15041 whole entry): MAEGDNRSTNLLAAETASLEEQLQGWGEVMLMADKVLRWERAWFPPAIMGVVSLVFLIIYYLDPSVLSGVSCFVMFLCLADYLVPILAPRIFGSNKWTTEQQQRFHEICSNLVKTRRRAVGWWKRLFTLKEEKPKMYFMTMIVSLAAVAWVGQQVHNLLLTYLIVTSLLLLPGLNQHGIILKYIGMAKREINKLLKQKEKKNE

Variant	effect of a mutation on the interaction
R128H	with no effect

Variants of: B4
Conditions: with pnma1_human PNMA1, Q8ND90
Sequence of pnma1_human PNMA1, Q8ND90 (Q8ND90 whole entry): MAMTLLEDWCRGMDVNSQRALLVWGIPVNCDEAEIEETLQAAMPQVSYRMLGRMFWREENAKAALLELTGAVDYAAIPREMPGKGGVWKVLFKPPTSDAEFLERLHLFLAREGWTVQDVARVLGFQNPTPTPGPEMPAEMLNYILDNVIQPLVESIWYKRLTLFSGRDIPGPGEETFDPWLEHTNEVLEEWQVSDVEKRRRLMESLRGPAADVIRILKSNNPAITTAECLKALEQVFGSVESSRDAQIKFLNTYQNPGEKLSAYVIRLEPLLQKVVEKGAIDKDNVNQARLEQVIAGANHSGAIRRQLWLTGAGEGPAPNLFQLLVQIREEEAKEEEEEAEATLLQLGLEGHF

Variant	effect of a mutation on the interaction
S614F	with no effect
G638S	with no effect
D880Y	with no effect
F665S	with no effect
V493A	with no effect

Variants of: B4
Conditions: with rbpms_human RBPMS

Variant	effect of a mutation on the interaction
S614F	with no effect
G638S	with no effect
A795T	with no effect

Variants of: B4
Conditions: with fam9b_human FAM9B

Variant	effect of a mutation on the interaction
S614F	disrupting interaction strength
G638S	with no effect
D880Y	with no effect
F665S	with no effect
V493A	with no effect

Variants of: B5
Conditions: with rbtn1_human LMO1, P25800

Variant	effect of a mutation on the interaction
I338M	with no effect

Variants of: B5
Conditions: with rbtn1_human LMO1, P25800
Remark: another data set of the same source

Variant	effect of a mutation on the interaction
A24V	with no effect
N119D	with no effect

Variants of: B6
Conditions: with fosl2_human FOSL2, P15408

Variant	effect of a mutation on the interaction
R226H	with no effect
